Test [1] deals with T1, SARS-CoV-2 WT stabilized soluble spike protein, hexahistidine-tagged (SARS-CoV-2 Wuhan-Hu-1, UniProt P0DTC2, stabilised).
T1 construct: also called WT SARS-CoV-2 S
The test is described as follows: BLI. The conditions noted are these: both partners purified.

For test [2], the target named is T2, SARS-CoV-2 WT soluble RBD (residues 319-541) (SARS-CoV-2 Wuhan-Hu-1, UniProt P0DTC2).
T2 construct: also called WT RBD; WT D614G RBD gene fragment
Description: ELISA. The note with it: both partners purified. In general terms: ELISA stands for enzyme-linked immunosorbent assay.

Here are results for one molecule from publication PMC10570122 (iScience, 2023).

B1: COVA309-22 monoclonal antibody (human IgG1) (antibody, V domains shown)
VH: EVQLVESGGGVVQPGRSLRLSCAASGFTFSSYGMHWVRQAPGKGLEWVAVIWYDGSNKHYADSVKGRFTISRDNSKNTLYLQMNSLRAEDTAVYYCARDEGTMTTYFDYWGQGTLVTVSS
VL: EIVLTQSPSSLSASVGDRVTITCRASQSISSYLNWYQQKPGKAPKLLIYDASSLQSGVPSRFSGSGSGTDFTLTISSLQPEDFATYYCQQSYSTPPWTFGQGTKVEIK
B1: the binding result in test [1] and in test [2] was “binds” throughout.
